Measured values taken from US20250368745A1 (published 2025).
Substitutions are numbered along the chain they refer to. Several values for one entry are separate records, joined by “and”; a condition that tells them apart may be missing. Equal entries are not always repeated.

T1: human IL-18BP (human, UniProt O95998 31-194)
T1 construct: UniProt printed as 095998; also called hIL-18BP
T1 sequence: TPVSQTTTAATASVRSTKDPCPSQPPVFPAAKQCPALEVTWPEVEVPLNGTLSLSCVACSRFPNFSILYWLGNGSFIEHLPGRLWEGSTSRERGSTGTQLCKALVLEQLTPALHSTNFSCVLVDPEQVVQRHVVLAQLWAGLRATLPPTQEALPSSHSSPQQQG

B1: SA301a HC-S56D (antibody, name in Kabat numbering, V domains shown)
VH: QVQLQESGPGLVKPSQTLSLTCTVSGYSITSDYNSHWIRQPPGKGLEWIGYIHYSGDTNYNPSLKSRVTISRDTSKNQFSLKLSSVTAADTAVYYCARNYGSIYVNYFDYWGQGTLVTVSS
VL: EIVLTQSPATLSLSPGERATLSCSASSSVSYMYWYQQKPGQAPRPLIYRTSNLASGIPARFSGSGSGTDFTLTISSLEPEDFAVYYCQQYHSYPTFGGGTKVEIK
notes: IgG1 kappa
B2: SA301a HC-T57Y (antibody, name in Kabat numbering, V domains shown)
VH: B1 VH with D57S, T58Y
VL: B1 VL
notes: IgG1 kappa
B3: SA301a HC-T57G (antibody, name in Kabat numbering, V domains shown)
VH: B1 VH with D57S, T58G
VL: B1 VL
notes: IgG1 kappa
B4: SA301a HC-T57A (antibody, name in Kabat numbering, V domains shown)
VH: B1 VH with D57S, T58A
VL: B1 VL
notes: IgG1 kappa
B5: SA301a HC-Y59N (antibody, name in Kabat numbering, V domains shown)
VH: B1 VH with D57S, Y60N
VL: B1 VL
notes: IgG1 kappa
B6: SA301a HC-Y59A (antibody, name in Kabat numbering, V domains shown)
VH: B1 VH with D57S, Y60A
VL: B1 VL
notes: IgG1 kappa
B7: SA301a HC-S56I (antibody, name in Kabat numbering, V domains shown)
VH: B1 VH with D57I
VL: B1 VL
notes: IgG1 kappa
B8: SA301a HC-T57S (antibody, name in Kabat numbering, V domains shown)
VH: B1 VH with D57S, T58S
VL: B1 VL
notes: IgG1 kappa
B9: SA301a HC-Y59V (antibody, name in Kabat numbering, V domains shown)
VH: B1 VH with D57S, Y60V
VL: B1 VL
notes: IgG1 kappa
B10: SA301a HC-Y59F (antibody, name in Kabat numbering, V domains shown)
VH: B1 VH with D57S, Y60F
VL: B1 VL
notes: IgG1 kappa
B11: SA301a HC-S56H (antibody, name in Kabat numbering, V domains shown)
VH: B1 VH with D57H
VL: B1 VL
notes: IgG1 kappa
B12: SA301a HC-S56K (antibody, name in Kabat numbering, V domains shown)
VH: B1 VH with D57K
VL: B1 VL
notes: IgG1 kappa
B13: SA301a HC-S56F (antibody, name in Kabat numbering, V domains shown)
VH: B1 VH with D57F
VL: B1 VL
notes: IgG1 kappa
B14: SA301a HC-T57L (antibody, name in Kabat numbering, V domains shown)
VH: B1 VH with D57S, T58L
VL: B1 VL
notes: IgG1 kappa
B15: SA301a HC-Y59L (antibody, name in Kabat numbering, V domains shown)
VH: B1 VH with D57S, Y60L
VL: B1 VL
notes: IgG1 kappa
B16: SA301a HC-Y59R (antibody, name in Kabat numbering, V domains shown)
VH: B1 VH with D57S, Y60R
VL: B1 VL
notes: IgG1 kappa
B17: SA301a HC-T57M (antibody, name in Kabat numbering, V domains shown)
VH: B1 VH with D57S, T58M
VL: B1 VL
notes: IgG1 kappa
B18: SA301a HC-T57V (antibody, name in Kabat numbering, V domains shown)
VH: B1 VH with D57S, T58V
VL: B1 VL
notes: IgG1 kappa
B19: SA301a HC-S56R (antibody, name in Kabat numbering, V domains shown)
VH: B1 VH with D57R
VL: B1 VL
notes: IgG1 kappa
B20: SA301a HC-T57Q (antibody, name in Kabat numbering, V domains shown)
VH: B1 VH with D57S, T58Q
VL: B1 VL
notes: IgG1 kappa
B21: SA301a HC-S56V (antibody, name in Kabat numbering, V domains shown)
VH: B1 VH with D57V
VL: B1 VL
notes: IgG1 kappa
B22: SA301a HC-S56P (antibody, name in Kabat numbering, V domains shown)
VH: B1 VH with D57P
VL: B1 VL
notes: IgG1 kappa
B23: SA301a HC-Y59D (antibody, name in Kabat numbering, V domains shown)
VH: B1 VH with D57S, Y60D
VL: B1 VL
notes: IgG1 kappa
B24: SA301a HC-T57F (antibody, name in Kabat numbering, V domains shown)
VH: B1 VH with D57S, T58F
VL: B1 VL
notes: IgG1 kappa
B25: SA301a HC-S56T (antibody, name in Kabat numbering, V domains shown)
VH: B1 VH with D57T
VL: B1 VL
notes: IgG1 kappa
B26: SA301a HC-T57R (antibody, name in Kabat numbering, V domains shown)
VH: B1 VH with D57S, T58R
VL: B1 VL
notes: IgG1 kappa
B27: SA301a HC-S56E (antibody, name in Kabat numbering, V domains shown)
VH: B1 VH with D57E
VL: B1 VL
notes: IgG1 kappa
B28: SA301a HC-S56Y (antibody, name in Kabat numbering, V domains shown)
VH: B1 VH with D57Y
VL: B1 VL
notes: IgG1 kappa
B29: SA301a HC-Y59K (antibody, name in Kabat numbering, V domains shown)
VH: B1 VH with D57S, Y60K
VL: B1 VL
notes: IgG1 kappa
B30: SA301a HC-S56M (antibody, name in Kabat numbering, V domains shown)
VH: B1 VH with D57M
VL: B1 VL
notes: IgG1 kappa
B31: SA301a HC-Y59S (antibody, name in Kabat numbering, V domains shown)
VH: B1 VH with D57S, Y60S
VL: B1 VL
notes: IgG1 kappa
B32: SA301a HC-T57E (antibody, name in Kabat numbering, V domains shown)
VH: B1 VH with D57S, T58E
VL: B1 VL
notes: IgG1 kappa
B33: SA301a HC-T57I (antibody, name in Kabat numbering, V domains shown)
VH: B1 VH with D57S, T58I
VL: B1 VL
notes: IgG1 kappa
B34: SA301a HC-Y59E (antibody, name in Kabat numbering, V domains shown)
VH: B1 VH with D57S, Y60E
VL: B1 VL
notes: IgG1 kappa
B35: SA301a HC-Y59G (antibody, name in Kabat numbering, V domains shown)
VH: B1 VH with D57S, Y60G
VL: B1 VL
notes: IgG1 kappa
B36: SA301a HC-T57N (antibody, name in Kabat numbering, V domains shown)
VH: B1 VH with D57S, T58N
VL: B1 VL
notes: IgG1 kappa
B37: SA301a HC-Y59Q (antibody, name in Kabat numbering, V domains shown)
VH: B1 VH with D57S, Y60Q
VL: B1 VL
notes: IgG1 kappa
B38: SA301a HC-T57K (antibody, name in Kabat numbering, V domains shown)
VH: B1 VH with D57S, T58K
VL: B1 VL
notes: IgG1 kappa
B39: SA301a HC-Y59P (antibody, name in Kabat numbering, V domains shown)
VH: B1 VH with D57S, Y60P
VL: B1 VL
notes: IgG1 kappa
B40: SA301a HC-S56L (antibody, name in Kabat numbering, V domains shown)
VH: B1 VH with D57L
VL: B1 VL
notes: IgG1 kappa
B41: SA301a HC-T57D (antibody, name in Kabat numbering, V domains shown)
VH: B1 VH with D57S, T58D
VL: B1 VL
notes: IgG1 kappa
B42: SA301a HC-Y59T (antibody, name in Kabat numbering, V domains shown)
VH: B1 VH with D57S, Y60T
VL: B1 VL
notes: IgG1 kappa
B43: SA301a HC-S56G (antibody, name in Kabat numbering, V domains shown)
VH: B1 VH with D57G
VL: B1 VL
notes: IgG1 kappa
B44: SA302a HC-D33G (antibody, V domains shown)
VH: B1 VH with D32G, S35A, D57S
VL: B1 VL
notes: IgG1 kappa
B45: SA302a HC-D33Q (antibody, V domains shown)
VH: B1 VH with D32Q, S35A, D57S
VL: B1 VL
notes: IgG1 kappa
B46: SA302a HC-D33T (antibody, V domains shown)
VH: B1 VH with D32T, S35A, D57S
VL: B1 VL
notes: IgG1 kappa
B47: SA302a HC-D33E (antibody, V domains shown)
VH: B1 VH with D32E, S35A, D57S
VL: B1 VL
notes: IgG1 kappa

target: T1, human IL-18BP; test: BLI, apparent KD

Binder	Kd
B1	0.62 nM
B2	1.74 nM
B3	0.11 nM
B4	0.9 nM
B5	0.79 nM
B6	0.35 nM
B7	0.48 nM
B8	0.37 nM
B9	0.38 nM
B10	0.87 nM
B11	0.55 nM
B12	0.64 nM
B13	0.7 nM
B14	0.32 nM
B15	0.42 nM
B16	0.42 nM
B17	0.18 nM
B18	0.36 nM
B19	0.17 nM
B20	0.91 nM
B21	0.25 nM
B22	0.97 nM

Binder	Kd
B23	1.25 nM and 0.63 nM
B24	1.22 nM
B25	0.45 nM
B26	0.67 nM
B27	0.48 nM
B28	1 nM
B29	0.12 nM
B30	0.46 nM
B31	1.57 nM
B32	0.42 nM
B33	0.28 nM
B34	0.18 nM
B35	1.59 nM
B36	0.86 nM
B37	0.35 nM
B38	0.52 nM
B39	0.08 nM
B40	0.36 nM
B41	1.73 nM
B42	0.14 nM
B43	0.46 nM

target: T1, human IL-18BP; test: BLI, apparent KD; remark: another data set of the same source

Binder	Kd
B44	3.95 nM
B45	2.92 nM
B46	5.17 nM and 8.95 nM
B47	1.76 nM
